The target of the assay is T1, SARS-CoV-2 spike stem helix peptide (residues 1146-1159), displayed on yeast (SARS-CoV-2).
T1 chain: DSFKEELDKYFKNH
In words: flow cytometry on cells. The following applies: partners not purified.

Results on 1 molecule are retold here after paper doi:10.1101/2024.06.06.597810 (bioRxiv, 2024).

B1: S2P6 VH E1Q/VL E105D in scFv format (scFv, V domains shown)
VH: QVQLVQSGAEVKKPGASVKVSCKASGYTFTSQYMHWVRQAPGQGLEWIGIINPSGVHTSYAQKFQGRVTLTRDTSTSTLYMELSSLRSEDTAVYYCARGSPKGAFDYWGQGTLVTVSS
VL: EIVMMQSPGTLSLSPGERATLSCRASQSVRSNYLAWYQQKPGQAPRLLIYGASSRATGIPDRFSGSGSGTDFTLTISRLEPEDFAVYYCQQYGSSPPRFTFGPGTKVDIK
notes: not shown: HA, C-terminal, kept
Take B1: the binding result is recorded as “binds”.
